Experimental data as given in patent US20230002480A1.

Key:
Test in all cases: cell-based or functional assay
[1] = molecular target: HIV-1 Env of pseudovirus 0815.v3.c3 (HIV-1)
[2] = molecular target: HIV-1 Env of pseudovirus 1006_11_C3_1601 (HIV-1)
[3] = molecular target: HIV-1 Env of pseudovirus 235-47 (HIV-1)
[4] = molecular target: HIV-1 Env of pseudovirus 3016.v5.c45 (HIV-1)
[5] = molecular target: HIV-1 Env of pseudovirus 3301.v1.c24 (HIV-1)
[6] = molecular target: HIV-1 Env of pseudovirus BJOX025000.01.1 (HIV-1)
[7] = molecular target: HIV-1 Env of pseudovirus C2101.c01 (HIV-1)
[8] = molecular target: HIV-1 Env of pseudovirus C3347.c11 (HIV-1)
[9] = molecular target: HIV-1 Env of pseudovirus CNE19 (HIV-1)
[10] = molecular target: HIV-1 Env of pseudovirus CNE58 (HIV-1)
[11] = molecular target: HIV-1 Env of pseudovirus Ce0393_C3 (HIV-1)
[12] = molecular target: HIV-1 Env of pseudovirus Du422.1 (HIV-1)
[13] = molecular target: HIV-1 Env of pseudovirus HIV-16845-2.22 (HIV-1)
[14] = molecular target: HIV-1 Env of pseudovirus P0402_c2_11 (HIV-1)
[15] = molecular target: HIV-1 Env of pseudovirus P1981_C5_3 (HIV-1)
[16] = molecular target: HIV-1 Env of pseudovirus Q259.d2.17 (HIV-1)
[17] = molecular target: HIV-1 Env of pseudovirus Q461.e2 (HIV-1)
[18] = molecular target: HIV-1 Env of pseudovirus R2184.c04 (HIV-1)
[19] = molecular target: HIV-1 Env of pseudovirus RHPA4259.7 (HIV-1)
[20] = molecular target: HIV-1 Env of pseudovirus T250-4 (HIV-1)
[21] = molecular target: HIV-1 Env of pseudovirus ZM197M.PB7 (HIV-1)
[22] = molecular target: HIV-1 Env of pseudovirus ZM247v1(Rev-) (HIV-1)

B1: N49P23 (antibody, V domains shown)
VH: QVRLVQSGAGARKTGASMKLSCSTSGYTFTTHHGHFINWVRQARGQGLEWMGWMNPMTGQMNIEGKFQGRVTLTRDIYSDTAYMEMTRLTTGDTGTYYCARGDFGQNYPFHYWGQGSLVIVSS
VL: LSALTQPASVSGSPGQSVTISCSGTNRYLVSWYQQHPDKAPKLIIYDDNKRPSGISDRFSASRPDDTASLTISGLQTGDEATYWCASYERFGGGTRLTVLS
[1]
  IC50: 0.004 µg/mL
  IC80: 0.014 µg/mL
  MPI: 100
[2]
  IC50: 0.015 µg/mL
  IC80: 0.054 µg/mL
  MPI: 100
[3]
  IC50: 0.085 µg/mL
  IC80: 0.749 µg/mL
  MPI: 90
[4]
  IC50: 0.027 µg/mL
  IC80: 0.092 µg/mL
  MPI: 100
[5]
  IC50: 0.017 µg/mL
  IC80: 0.058 µg/mL
  MPI: 100
[6]
  IC50: > 50 µg/mL
  IC80: > 50 µg/mL
  MPI: 0
[7]
  IC50: 0.056 µg/mL
  IC80: 0.362 µg/mL
  MPI: 100
[8]
  IC50: 0.007 µg/mL
  IC80: 0.032 µg/mL
  MPI: 100
[9]
  IC50: > 50 µg/mL
  IC80: > 50 µg/mL
  MPI: 40
[10]
  IC50: > 50 µg/mL
  IC80: > 50 µg/mL
  MPI: 9
[11]
  IC50: > 50 µg/mL
  IC80: > 50 µg/mL
  MPI: 29
[12]
  IC50: > 50 µg/mL
  IC80: > 50 µg/mL
  MPI: 4
[13]
  IC50: > 50 µg/mL
  IC80: > 50 µg/mL
  MPI: 20
[14]
  IC50: 0.022 µg/mL
  IC80: 0.065 µg/mL
  MPI: 100
[15]
  IC50: 0.096 µg/mL
  IC80: 0.264 µg/mL
  MPI: 100
[16]
  IC50: 0.362 µg/mL
  IC80: 7.79 µg/mL
  MPI: 91
[17]
  IC50: 0.099 µg/mL
  IC80: 0.464 µg/mL
  MPI: 100
[18]
  IC50: 0.008 µg/mL
  IC80: 0.032 µg/mL
  MPI: 100
[19]
  IC50: 0.01 µg/mL
  IC80: 0.04 µg/mL
  MPI: 100
[20]
  IC50: > 50 µg/mL
  IC80: > 50 µg/mL
  MPI: 0
[21]
  IC50: 0.1 µg/mL
  IC80: 0.385 µg/mL
  MPI: 100
[22]
  IC50: > 50 µg/mL
  IC80: > 50 µg/mL
  MPI: 24

B2: N49P22 (antibody, V domains shown)
V domain 1: HIQLLQSGPQVKKSGDTVRISCETSGYNFVDSRIHWVRQTPEKRLRWMGWINPLQGGVNYAPEFQGRIRMTRDTFIDTVYVDLSGLTPADTAYYYCARGIDGKSYPFHFWGHGTRVTVFS
V domain 2: RFALTQPASVSGSPGQTITITCAGGSVSWFHFPPGKTPRLIIYESSKRPSGVSPRFSGSQSGSTASLIISGLQSDDEGTYFCSILEFFGRGTLVTVLS
[1]
  IC50: 0.161 µg/mL
  IC80: 1.08 µg/mL
  MPI: 98
[2]
  IC50: 0.898 µg/mL
  IC80: 14.7 µg/mL
  MPI: 83
[3]
  IC50: 0.037 µg/mL
  IC80: 0.373 µg/mL
  MPI: 99
[4]
  IC50: > 50 µg/mL
  IC80: > 50 µg/mL
  MPI: 23
[5]
  IC50: 2.82 µg/mL
  IC80: 48.8 µg/mL
  MPI: 80
[6]
  IC50: > 50 µg/mL
  IC80: > 50 µg/mL
  MPI: 0
[7]
  IC50: 0.171 µg/mL
  IC80: 1.06 µg/mL
  MPI: 99
[8]
  IC50: 1.18 µg/mL
  IC80: 12.3 µg/mL
  MPI: 89
[9]
  IC50: 0.873 µg/mL
  IC80: 8.19 µg/mL
  MPI: 92
[10]
  IC50: 28.4 µg/mL
  IC80: > 50 µg/mL
  MPI: 57
[11]
  IC50: > 50 µg/mL
  IC80: > 50 µg/mL
  MPI: 12
[12]
  IC50: > 50 µg/mL
  IC80: > 50 µg/mL
  MPI: 4
[13]
  IC50: 4.6 µg/mL
  IC80: 41.9 µg/mL
  MPI: 87
[14]
  IC50: 5.93 µg/mL
  IC80: > 50 µg/mL
  MPI: 73
[15]
  IC50: > 50 µg/mL
  IC80: > 50 µg/mL
  MPI: 48
[16]
  IC50: > 50 µg/mL
  IC80: > 50 µg/mL
  MPI: 15
[17]
  IC50: 11.2 µg/mL
  IC80: > 50 µg/mL
  MPI: 66
[18]
  IC50: 0.077 µg/mL
  IC80: 0.342 µg/mL
  MPI: 100
[19]
  IC50: 0.637 µg/mL
  IC80: 5.6 µg/mL
  MPI: 92
[20]
  IC50: > 50 µg/mL
  IC80: > 50 µg/mL
  MPI: 5
[21]
  IC50: 2.58 µg/mL
  IC80: 25.1 µg/mL
  MPI: 84
[22]
  IC50: > 50 µg/mL
  IC80: > 50 µg/mL
  MPI: 11
